Target: Xenopus cyclase-associated protein 1 (XCAP1) (X. laevis (endogenous in oocytes))
Assay: SEC-MALS + AUC; purified native XCAP1-actin complex; SEC-MALS on SRT SEC-300 in PBS pH 7.2, 0.02% NaN3, 20 °C; sedimentation velocity at 40,000 rpm, 20 °C

For “Xenopus cyclase-associated protein 1 (XCAP1) (natural protein)”, the stoichiometry N was 4.
